For the assay, the target named is GST-sPol_PR_(D25N) (Glutathione S-Transferase tagged HIV-1 Pol polyprotein with a catalytically dead protease) (HIV-1). As to the kind of experiment: AlphaScreen or HTRF; titration: GST-sPol_PR_(D25N) constant at 20 nM, WT or D366N Flag-LEDGF/p75 titrated from 50 nM downward (1:2.5 series); glutathione donor and anti-Flag acceptor beads; 25 mM Tris/HCl pH 7.5, 150 mM NaCl, 1 mM DTT, 1 mM MgCl2, 0.1% BSA, 0.1% Tween 20; 1 h at 4°C, then 1 h at 23°C with beads; apparent. (In general: Bead proximity is the source of the signal in Alpha formats.)

These results are taken from paper PMC4357141.

Take “Flag-LEDGF/p75 WT (lens epithelium-derived growth factor p75) (from UniProt O75475 1-530) (natural protein)”: the Kd turned out to be 3.1 nM.
